Measurements from US20140303084A1 (Biogen, published 2014).
Square brackets hold non-standard residues; d marks the D form. Ends that are not written are not given here. NMeY = CN[C@@H](Cc1ccc(O)cc1)C(=O)O; NMeL = CN[C@@H](CC(C)C)C(=O)O

B1: SKQGRPISSDrRAAGKSTCLASYCWLFWTGIA (peptide)
peptide: SKQGRPISSD[dR]RAAGKSTCLASYCWLFWTGIA
modifications: not fully specified; printed as SKQGRPISSDrRAAGKSTCLASYCWLFWTGIA; cysteine pairing not given here
B2: SKQGRPIAPDrRAAGKLTCLASYCWLFWTGIA (peptide)
peptide: SKQGRPIAPD[dR]RAAGKLTCLASYCWLFWTGIA
modifications: not fully specified; printed as SKQGRPIAPDrRAAGKLTCLASYCWLFWTGIA; cysteine pairing not given here
B3: SKQGRPISPArRAAGKLTCLASYCWLFWTGIA (peptide)
peptide: SKQGRPISPA[dR]RAAGKLTCLASYCWLFWTGIA
modifications: not fully specified; printed as SKQGRPISPArRAAGKLTCLASYCWLFWTGIA; cysteine pairing not given here
B4: SKQGRPISSDrRASGKSTCLASYCWLFWTGIA (peptide)
peptide: SKQGRPISSD[dR]RASGKSTCLASYCWLFWTGIA
modifications: not fully specified; printed as SKQGRPISSDrRASGKSTCLASYCWLFWTGIA; cysteine pairing not given here
B5: SKQGRPISADrRAAGKLTCLASYCWLFWTGIA (peptide)
peptide: SKQGRPISAD[dR]RAAGKLTCLASYCWLFWTGIA
modifications: not fully specified; printed as SKQGRPISADrRAAGKLTCLASYCWLFWTGIA; cysteine pairing not given here
B6: SKQGRPISSDrRAAGKLTCLASYCWLFWTGIA (peptide)
peptide: SKQGRPISSD[dR]RAAGKLTCLASYCWLFWTGIA
modifications: not fully specified; printed as SKQGRPISSDrRAAGKLTCLASYCWLFWTGIA; cysteine pairing not given here
B7: SKQGRPISSDrRASGKLTCLASYCWLFWTGIA (peptide)
peptide: SKQGRPISSD[dR]RASGKLTCLASYCWLFWTGIA
modifications: not fully specified; printed as SKQGRPISSDrRASGKLTCLASYCWLFWTGIA; cysteine pairing not given here
B8: SKQGRPISPDrRAAGKLTCLaSYCWLFWTGIA (peptide)
peptide: SKQGRPISPD[dR]RAAGKLTCL[dA]SYCWLFWTGIA
modifications: not fully specified; printed as SKQGRPISPDrRAAGKLTCLaSYCWLFWTGIA; cysteine pairing not given here

target: human Factor IXa (human, UniProt P00740 47-191; P00740 227-461); assay: cell-based or functional assay

Row | EC50 [µM], FXa generation assay [µM] | EC50 [µM], FXa generation assay with hFIXa [µM] | Binder
1 | > 1 |  | RRAPGKLTCLASYCWLFVTGTAHAPRVAPAPA [RRAPGKLTCLASYCWLF VTGTA HAPRVAPAPA]
2 | < 0.5 |  | PQTRDPSSRDRRAPGKLTCLASYCWLFWTGIA [PQTRDPSSRD RRAPG KLTCLASYCWLFWTGIA]
3 | > 10 |  | SKQGRPISPD[dR]RAAGKLTCLASYCW[NMeL]FWTGIA (not fully specified; cysteine pairing not given here) [SKQGRPISPDrRAAGKLTCLASYCW-NMeLeu-FWTGIA]
4 | > 1 |  | AQWVGRGQWAIRAPGKLTCLASYCWLFWTGIA [AQWVGRGQWA IRAPG KLTCLASYCWLFWTGIA]
5 |  | > 25 | LYTAWIKCQFARLPGCALSGRW-NH2 (cysteine pairing not given here) [compound C]
6 | < 0.5 |  | SLISMTNPSGRRVPGKLTCLASYCWLFWTGIA [SLISMTNPSG RRVPG KLTCLASYCWLFWTGIA]
7 | < 0.5 |  | GRAMAAEPWPRQAPGKLTCLASYCWLFWTGIA [GRAMAAEPWP RQAPG KLTCLASYCWLFWTGIA]
8 | < 0.5 |  | B1
9 | < 0.5 |  | B2
10 | > 1 |  | PARGKERELMRRAPGKLTCLASYCWLFWTGIA [PARGKERELM RRAPG KLTCLASYCWLFWTGIA]
11 | < 0.5 |  | B3
12 | < 0.5 |  | B4
13 | < 0.5 |  | NGALGFRSVVPRAAGKLTCLASYCWLFWTGIA [NGALGFRSVV PRAAG KLTCLASYCWLFWTGIA]
14 | > 1 |  | RRAPGKLTCLASYCWLFLTGWARVPLPPRPHP [RRAPGKLTCLASYCWLF LTGWA RVPLPPRPHP]
15 | < 0.5 |  | RRAPGKLTCLASYCWLFWTAVGGQPYMLLAWR [RRAPGKLTCLASYCWLF WTAVG GQPYMLLAWR]
16 | > 1 |  | RRAPGKLTCLASYCWLFWAVIAPPKVKGTRQS [RRAPGKLTCLASYCWLF WAVIA PPKVKGTRQS]
17 | > 10 |  | SKQGRPISPD[dR]RAAGKLTCLAS[NMeY]CWLFWTGIA (not fully specified; cysteine pairing not given here) [SKQGRPISPDrRAAGKLTCLAS-NMeTyr-CWLFWTGIA]

Row | EC50 [µM], FXa generation assay [µM] | EC50 [µM], FXa generation assay with hFIXa [µM] | Binder
18 | > 1 |  | RRAPGKLTCLASYCWLFATGVTFPQIWAIPSP [RRAPGKLTCLASYCWLF ATGVT FPQIWAIPSP]
19 | < 0.5 |  | RRAPGKLTCLASYCWLFWTTWTTAPTTPPLTT [RRAPGKLTCLASYCWLF WTTWT TAPTTPPLTT]
20 | > 1 |  | RPRSSAHDRPRRAAGKLTCLASYCWLFWTGIA [RPRSSAHDRP RRAAG KLTCLASYCWLFWTGIA]
21 | > 1 |  | RRAPGKLTCLASYCWLFYTGIAHGHPMEHRKS [RRAPGKLTCLASYCWLF YTGIA HGHPMEHRKS]
22 | < 0.5 |  | PRTTANRRSSRRAPAKLTCLASYCWLFWTGIA [PRTTANRRSS RRAPA KLTCLASYCWLFWTGIA]
23 | < 0.5 |  | B5
24 | < 0.5 |  | B6
25 | > 1 |  | RRAPGKLTCLASYCWLFWTGIARWPSHRSGPS (not fully specified (C-terminus); cysteine pairing not given here) [RRAPGKLTCLASYCWLF WTGIA RWPSHRSGPS]
26 | < 0.5 |  | RRAPGKLTCLASYCWLFWSGIAPQPPNMRPSV [RRAPGKLTCLASYCWLF WSGIA PQPPNMRPSV]
27 | > 1 |  | RRAPGKLTCLASYCWLFWAGIAPHRPLKERVR [RRAPGKLTCLASYCWLF WAGIA PHRPLKERVR]
28 | < 0.5 |  | TALSRGLVTMRTAPDKLTCLASYCWLFWTGIA [TALSRGLVTM RTAPD KLTCLASYCWLFWTGIA]
29 | < 0.5 |  | B7
30 | < 0.5 |  | RRAPGKLTCLASYCWLFWTTYASYATKPADTT [RRAPGKLTCLASYCWLF WTTYA SYATKPADTT]
31 | > 10 |  | B8
32 | < 0.5 |  | RRAPGKLTCLASYCWLFWTGLLDYPTPQSHEP [RRAPGKLTCLASYCWLF WTGLL DYPTPQSHEP]
33 | < 0.5 |  | PNLLRVRTSEVRNPGKLTCLASYCWLFWTGIA [PNLLRVRTSE VRNPG KLTCLASYCWLFWTGIA]
